Data as given in publication PMC2650391 (Molecular cell, 2009).

Tested on: H3K4me peptides / ING4 PHD finger
Assay: Biotinylated histone peptide pull-down, Western analysis
Format: binding
Conditions: full-length vs PHD-deleted ING4

B1: ING4ΔPHD: ING4 derivative lacking the PHD finger (aa 1–194) (protein)
chain: MAAGMYLEHYLDSIENLPFELQRNFQLMRDLDQRTEDLKAEIDKLATEYMSSARSLSSEEKLALLKQIQEAYGKCKEFGDDKVQLAMQTYEMVDKHIRRLDTDLARFEADLKEKQIESSDYDSSSSKGKKKGRTQKEKKAARARSKGKNSDEEAPKTAQKKLKLVRTSPEYGMPSVTFGSVHPSDVLDMPVDPN
modifications: left off: GST (inferred from the vector pGEX6P1), end not stated, state not stated
recognition of methylated H3K4 peptides in pull-down: does not
